Measured values taken from PMC9817140.

Target: T1, RpoN (sigma-54) (Vibrio parahaemolyticus RIMD2210633) (UniProt Q87LE2)
T1 sequence: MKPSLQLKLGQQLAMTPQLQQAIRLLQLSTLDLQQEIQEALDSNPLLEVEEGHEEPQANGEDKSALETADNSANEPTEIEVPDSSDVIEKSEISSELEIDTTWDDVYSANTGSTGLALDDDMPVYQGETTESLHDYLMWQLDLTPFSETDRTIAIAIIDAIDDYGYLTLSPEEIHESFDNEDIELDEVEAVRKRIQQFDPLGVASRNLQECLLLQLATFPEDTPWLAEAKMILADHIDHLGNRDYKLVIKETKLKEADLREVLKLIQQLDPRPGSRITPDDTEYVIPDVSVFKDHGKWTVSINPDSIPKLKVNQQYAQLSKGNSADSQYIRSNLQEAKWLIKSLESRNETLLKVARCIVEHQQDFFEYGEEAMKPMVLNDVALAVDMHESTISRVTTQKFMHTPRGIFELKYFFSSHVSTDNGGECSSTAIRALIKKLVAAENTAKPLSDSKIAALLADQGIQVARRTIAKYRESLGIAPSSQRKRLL
Experiment: EMSA
Conditions: EMSA: 20 µl with 10 ng FAM probe, 4 µl EMSA buffer (10 mM NaCl, 0.1 mM DTT, 0.1 mM EDTA, 10 mM Tris pH 7.4), 1 µl poly-dIdC, 25 °C 0.5 h, 6% native PAGE

Sequence | binding
TGCCTGCAGGTCGACGATCCTTGTTTTATCCCATGGTCAGCGGGCGCGAAGGCGGCACCGGACTTGGGTTGTCCATCTCACAAAATTTGATCGACCAGCACAACGGAAAAATCGACGTTGAAAGCTGGCCTGGCCACACCACTTTTACAATTTATTTGCCGATTTGACCTCACGAATGGATTTCGTTGAGCGCCAATTTACGGTTTTTGCTGCAAGGATTAGTAC (double strand) [VP0118 promoter] | no binding
TGCCTGCAGGTCGACGATGTGGAATGTAATGGCCGACGCAAAGAAATGGCAGAGAAGTTGGGCATAAGCCCGCGTACTCTGCGCTACAAACTTGCCAAAATGCGTGACGCGGGTATAGATATTCCGAGTTAGGTTTCACACGCGTAGCCATAAGACAAAAGTGTGAGTAAACTATACAGCTGGCGTCTTGTCAATAATTAGTTTAAATAGATAGTCAAACTTTTGGCTCAGAGGTGATA (double strand) [ΔfliE promoter (RpoN site deleted)] | no binding
GTGCCTTGTCAAAAGATATAGCCATGTTTGCCTCTACAATTAAGAACTGACCGTTATTAATAACTAAAAAACCGGAAACGCTAAAACACCTATCAGCTATTGACGTTTTAGATTGCAATAAGCAAGCCAAAGTAACTGGAATGTCGTATCACTTCGCTTACTTGAATAAAGATACACCCTGCAGAGGGAGCAGGGCAAAGTCCGACAACAGATTAGCGAGGGGAAACTCGAAATCTCATCTCATATAGACAAAATCGTCGACCTGCAGGCA (double strand) [ΔflgB promoter (RpoN site deleted)] | no binding
TGCCTGCAGGTCGACGATGAGCTGCTGATATGCTGGGTATGCGCCGTACAACGTTGGTTGAGAAAATGCGCAAGTATAATTTGCAGCGTTAGATCGAGCTTCAGTTCAATCACAAAAGTTATCTTTTCTGACATTAAAATCAGACATTTCTCGGTGTCAACTTATTGTCGATAACATAACGTCATGATAAATATAAAAATAGCTTGGTACGCTAATTGCTTACCAAGCTATTTTACTTTTTAGTGGCGATATTTCGACAGGCAGTGA (double strand) [flaL promoter] | no binding
TTTTGGACCATCCGTCAGTAAATCAAACCCTTCTGGATGTATCAACTGCAGCGGTAACACTTGCGCCAATTGCGCCAATTTTTGCCCAGATTGACCGCCTATTTTAACCTCTGTCGAGCCATCGCGCTGCTTATTAATGCCGATAGGTAGCTCAAATTGATCCGAGTTCAAAAAACGACCATGAACAAACAGTTCATCACACTCATTTTGAATCACACGACCAGTGAGAGAGCTTTTGAATGAGCGACCATGCCCGAGTAAATAAATCGCTTCTAGGACAATCGTCGACCTGCAGGCA (double strand) [gyrB promoter] | no binding
TGCCTGCAGGTCGACGATATCTTAATTCGCACCACTTTAGTGCAGACGTAGATCATTTTGGTGCAATCATTTGCACCAAACTAGCATCTAAAAACACAATTCATTGAAATTAATGGAATATTTTTTTTGGCACGGTTTTGGCTTTAGTAAACACAGCATCGATTAATGAAAAGTCAAAAAGATTAATCAATGCCGGGTTCATGAATATTTCATAAGTCGAGCTTTTACCGCTTATTAACACTGGAGGTTATCCAAG (double strand) [VP0121 promoter] | binds
TGCCTGCAGGTCGACGATTTTTGGACTCAACGTAACATTTTTCAATTTTGCCTCTCGTCACATCGCGTGAGTATCGAGTACAAAAATAAAATTTAATGTTCACCACATCCTTGTCGCCTATTGGATTTAGAACATGATGATGAGGACCACAGC (double strand) [flgM promoter] | no binding
TGCCTGCAGGTCGACGATTCTCTTTGCCTTAATCTTATGCCGATCAAAGCACATCGGAAACTAACGCTAAAACGGTAGCAAACCCCAACTTAGTGGAATGCAAGTCACTAAAAATCATCAATTTTGATCTTTTTTAGAAAATTTTTAATTTTCAAATTAATCATTAGTGGCAAGCGACCGCCTCTAGTTAGTGACTAGGGAATATCCCAAGGCCTGAAAGAAATAGTGATAAACTAAGGAGACTAAG (double strand) [lafA promoter] | binds
TGCCTGCAGGTCGACGATCTTGGCTTGATAACATCATGACATTCATCTGATGCTTAGCCTGAAAACACCTCAGTTCAGGCTAAGCATGCTTTGATCTCTGGTTTGCCGCTGTTGCCGCCACATGGATCAAAATCTTGCCTCCCTTTGCAGTTTTTTTTCATTGAATATCCTTCTTGATTGCCTTTAATCTCATTCAAGTTTTTGATAAATAAGTTTATTTTTATTTTGGCATAACTATTGCTTTTACTCCGGAAGTACAGAGACTTTTTTGGAGTAA (double strand) [flgF promoter] | no binding
TGCCTGCAGGTCGACGATGTCCTGTCGAAAGAATTCCTAATAACAGTATCCACTTTGAGGAAATTAGAGTTTTCCCCCTAATTTTTTTGCTTTCCGTAAACCGGAAGTTTGGTTTCCACTCTTGTTTGTAAGTCATTGATAAATATAAATAAAATTTATGGCACGTATCTTGTTTGTATCTTGGCGTATTCGAGCCGACTGTAAGGAAAGATGCATGGCGATCACATTTGAAAATGCTTTAGGTGTACATCCAG (double strand) [flgB2 promoter] | binds
TGCCTGCAGGTCGACGATTCTGTAAATAATAATTGAGAGTTGCTTCATAATAACTATTATTAGTTATAAATATCGCTTAATTTAAATCTAATTTAAAGATATAAAGGAGCGTATTTAAAATGAAGTTTTTGATACATCAATCATTAATTATCATTATTCAGATAATTTAATTAATACGAAATATGTCAATTAATAATGCTCTAGGAGATTAGC (double strand) [hcp2 promoter] | binds
TGCCTGCAGGTCGACGATTTAATCAACACGTCACATTCCTAAAATGAATTAAATATTTTCAGCTTTTTAGTCGCCTTGTCTTATAGGGAAACACTAGATGTTTTCGAGAGGAAGGCGGAACACATAAGGTGGAAAATACACTTCCTCTCAAATTTAAATAGTATCGCAAGTCAATGTTTTAAAAGAATATTCAAGTTAGGCACGTATCTTGCGATAAGACATACTTTCAAGGCATAGAGTTACGCCAATTACCAATGAGAGAGGGAGTAAGCTC (double strand) [lafB promoter] | no binding
TGCCTGCAGGTCGACGATGATATTTTATTGGCATGACATTTGCTATTTGTTGCTCAATACTAATCTGGTTGAAGTTAGCACGGACGCACTGCGTAGTATTCATCGCCTATAGATGGCGGAATAAGAATGCTCATTGATAAGTTAATCAGCAGAATCTCCGGCGCTAACTACACTAAGAGATGGAAAAGACTATCCATGTTCATAAATGGAATTGAGC (double strand) [VP1510 promoter] | no binding
TGCCTGCAGGTCGACGATCGCCGGAACATCGTCATTAATCGTACAAAAAGCAAAATTAAGAAAAATATAAAACAATCAATGGATTGTGCTGTTATTTAGCTTTGAGTCATTATTTTGGCGTTGATTTTGGTACATAGATTGCTTAAGTCGACTAATTATCAACTATACCTAAACTTTTAGGCGAAAGTGGTCGCGTATAAACATTAGACATACGTATTAAAGTGCGTATTCGCGTGACGCTTCAATTCGATTGAGATACCTCGCAGT (double strand) [flhA promoter] | no binding
TGCCTGCAGGTCGACGATGTGGAATGTAATGGCCGACGCAAAGAAATGGCAGAGAAGTTGGGCATAAGCCCGCGTACTCTGCGCTACAAACTTGCCAAAATGCGTGACGCGGGTATAGATATTCCGAGTTAGGTTTCACACGCGTAGCCATAAGACAAAAGTGTGAGTAAACTATACAGCTGGCGTCTTATGGCACATAAATTGCTGTGTCAATAATTAGTTTAAATAGATAGTCAAACTTTTGGCTCAGAGGTGATA (double strand) [fliE promoter] | binds
TGCCTGCAGGTCGACGATCTGCAAGTGAAGCAGAAAATCGAAAGTATGTGACCTTTTGGGGTTGCCGCGTACGCGAATCATTGAGGCTTGCCATCGTGCAAGCCTTTATTTTACCTGAATTTACTACTCTAAATCCCACTTGGCACATCTTTTGCTTTTACTTGTCTAGGTGATCGGTATTTACCGATCTTATTTCGTTTTTGGGGGCAGGTATGGCGTCAGATCTTCTG (double strand) [flgK promoter] | no binding
